Patent US20250339531A1, “DUX4 POLYPEPTIDES AND NUCLEIC ACIDS FOR TREATING INFLAMMATORY AND AUTOIMMUNE CONDITIONS” (Fred Hutchinson Cancer Center, priority 2021, published 2025)

System: proteins that co-immunoprecipitated with DUX4-CTD constructs expressed in MB135 myoblasts
Test: LC-MS of proteins co-immunoprecipitated with DUX4-CTD (Table 1) and western validation
Assay type: binding, human
Design: key to 4. mL1dL2 + Dox + IFNG / 4. + IFNG mix / 4. longCTD + Dox + IFNG / 3. + IFNg + Dox longCTD / 3. + Dox longCTD / 3. + IFNG longCTD: peptide-spectrum matches (PSMs) per protein
Conditions: for 4. longCTD + Dox + IFNG: LC-MS counts of the listed protein co-immunoprecipitated with DUX4-CTD bait longCTD, experiment 4, Dox + IFNG; for 3. + IFNg + Dox longCTD / 3. + Dox longCTD: bait longCTD; for 3. + IFNg + Dox longCTD: experiment 3, IFNg + Dox; for SUM of PSMS: sum over all samples; for 3. + Dox longCTD: experiment 3, Dox only
Method in brief: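 Two independent experiments compared uninduced, doxycycline and doxycycline+IFNG MB135iDUX4-CTD (plus MB135iDUX4mL1dL2) myoblasts. Anti-FLAG pulldowns (3 h, 4 °C) were eluted in LDS buffer for western validation or with FLAG peptide for trypsin digestion and Orbitrap LC-MS; hits needed ≥2 PSMs in both experiments, ranked by total PSMs.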

B1: P55209 (protein, UniProt P55209 1-391, looked up)
chain: MADIDNKEQSELDQDLDDVEEVEEEETGEETKLKARQLTVQMMQNPQILAALQERLDGLVETPTGYIESLPRVVKRRVNALKNLQVKCAQIEAKFYEEVHDLERKYAVLYQPLFDKRFEIINAIYEPTEEECEWKPDEEDEISEELKEKAKIEDEKKDEEKEDPKGIPEFWLTVFKNVDLLSDMVQEHDEPILKHLKDIKVKFSDAGQPMSFVLEFHFEPNEYFTNEVLTKTYRMRSEPDDSDPFSFDGPEIMGCTGCQIDWKKGKNVTLKTIKKKQKHKGRGTVRTVTKTVSNDSFFNFFAPPEVPESGDLDDDAEAILAADFEIGHFLRERIIPRSVLYFTGEAIEDDDDDYDEEGEEADEEGEEEGDEENDPDYDPKKDQNPAECKQQ
modifications: full-length
4. longCTD + Dox + IFNG: 3
3. + IFNg + Dox longCTD: 5
SUM of PSMS: 10

B2: P17655 (protein, UniProt P17655 1-700, looked up)
chain: MAGIAAKLAKDREAAEGLGSHDRAIKYLNQDYEALRNECLEAGTLFQDPSFPAIPSALGFKELGPYSSKTRGIEWKRPTEICADPQFIIGGATRTDICQGALGDCWLLAAIASLTLNEEILARVVPLNQSFQENYAGIFHFQFWQYGEWVEVVVDDRLPTKDGELLFVHSAEGSEFWSALLEKAYAKINGCYEALSGGATTEGFEDFTGGIAEWYELKKPPPNLFKIIQKALQKGSLLGCSIDITSAADSEAITFQKLVKGHAYSVTGAEEVESNGSLQKLIRIRNPWGEVEWTGRWNDNCPSWNTIDPEERERLTRRHEDGEFWMSFSDFLRHYSRLEICNLTPDTLTSDTYKKWKLTKMDGNWRRGSTAGGCRNYPNTFWMNPQYLIKLEEEDEDEEDGESGCTFLVGLIQKHRRRQRKMGEDMHTIGFGIYEVPEELSGQTNIHLSKNFFLTNRARERSDTFINLREVLNRFKLPPGEYILVPSTFEPNKDGDFCIRVFSEKKADYQAVDDEIEANLEEFDISEDDIDDGFRRLFAQLAGEDAEISAFELQTILRRVLAKRQDIKSDGFSIETCKIMVDMLDSDGSGKLGLKEFYILWTKIQKYQKIYREIDVDRSGTMNSYEMRKALEEAGFKMPCQLHQVIVARFADDQLIIDFDNFVRCLVRLETLFKIFKQLDPENTGTIELDLISWLCFSVL
modifications: full-length
4. longCTD + Dox + IFNG: 3
3. + IFNg + Dox longCTD: 1
SUM of PSMS: 4

B3: P29508 (protein, UniProt P29508 1-390, looked up)
chain: MNSLSEANTKFMFDLFQQFRKSKENNIFYSPISITSALGMVLLGAKDNTAQQIKKVLHFDQVTENTTGKAATYHVDRSGNVHHQFQKLLTEFNKSTDAYELKIANKLFGEKTYLFLQEYLDAIKKFYQTSVESVDFANAPEESRKKINSWVESQTNEKIKNLIPEGNIGSNTTLVLVNAIYFKGQWEKKFNKEDTKEEKFWPNKNTYKSIQMMRQYTSFHFASLEDVQAKVLEIPYKGKDLSMIVLLPNEIDGLQKLEEKLTAEKLMEWTSLQNMRETRVDLHLPRFKVEESYDLKDTLRTMGMVDIFNGDADLSGMTGSRGLVLSGVLHKAFVEVTEEGAEAAAATAVVGFGSSPTSTNEEFHCNHPFLFFIRQNKTNSILFYGRFSSP
modifications: full-length
3. + IFNg + Dox longCTD: 2
SUM of PSMS: 4

B4: O94919 (protein, UniProt O94919 1-500, looked up)
chain: MGTARWLALGSLFALAGLLEGRLVGEEEAGFGECDKFFYAGTPPAGLAADSHVKICQRAEGAERFATLYSTRDRIPVYSAFRAPRPAPGGAEQRWLVEPQIDDPNSNLEEAINEAEAITSVNSLGSKQALNTDYLDSDYQRGQLYPFSLSSDVQVATFTLTNSAPMTQSFQERWYVNLHSLMDRALTPQCGSGEDLYILTGTVPSDYRVKDKVAVPEFVWLAACCAVPGGGWAMGFVKHTRDSDIIEDVMVKDLQKLLPFNPQLFQNNCGETEQDTEKMKKILEVVNQIQDEERMVQSQKSSSPLSSTRSKRSTLLPPEASEGSSSFLGKLMGFIATPFIKLFQLIYYLVVAILKNIVYFLWCVTKQVINGIESCLYRLGSATISYFMAIGEELVSIPWKVLKVVAKVIRALLRILCCLLKAICRVLSIPVRVLVDVATFPVYTMGAIPIVCKDIALGLGGTVSLLFDTAFGTLGGLFQVVFSVCKRIGYKVTFDNSGEL
modifications: full-length
4. longCTD + Dox + IFNG: 2
3. + IFNg + Dox longCTD: 1
SUM of PSMS: 5

B5: P52597 (protein, UniProt P52597 1-415, looked up)
chain: MMLGPEGGEGFVVKLRGLPWSCSVEDVQNFLSDCTIHDGAAGVHFIYTREGRQSGEAFVELGSEDDVKMALKKDRESMGHRYIEVFKSHRTEMDWVLKHSGPNSADSANDGFVRLRGLPFGCTKEEIVQFFSGLEIVPNGITLPVDPEGKITGEAFVQFASQELAEKALGKHKERIGHRYIEVFKSSQEEVRSYSDPPLKFMSVQRPGPYDRPGTARRYIGIVKQAGLERMRPGAYSTGYGGYEEYSGLSDGYGFTTDLFGRDLSYCLSGMYDHRYGDSEFTVQSTTGHCVHMRGLPYKATENDIYNFFSPLNPVRVHIEIGPDGRVTGEADVEFATHEEAVAAMSKDRANMQHRYIELFLNSTTGASNGAYSSQVMQGMGVSAAQATYSGLESQSVSGCYGAGYSGQNSMGGYD
modifications: full-length
4. longCTD + Dox + IFNG: 1
3. + Dox longCTD: 1
3. + IFNg + Dox longCTD: 4
SUM of PSMS: 6

B6: Q86YD1 (protein, UniProt Q86YD1 1-416, looked up)
chain: MVRPRRAPYRSGAGGPLGGRGRPPRPLVVRAVRSRSWPASPRGPQPPRIRARSAPPMEGARVFGALGPIGPSSPGLTLGGLAVSEHRLSNKLLAWSGVLEWQEKRRPYSDSTAKLKRTLPCQAYVNQGENLETDQWPQKLIMQLIPQQLLTTLGPLFRNSQLAQFHFTNRDCDSLKGLCRIMGNGFAGCMLFPHISPCEVRVLMLLYSSKKKIFMGLIPYDQSGFVSAIRQVITTRKQAVGPGGVNSGPVQIVNNKFLAWSGVMEWQEPRPEPNSRSKRWLPSHVYVNQGEILRTEQWPRKLYMQLIPQQLLTTLVPLFRNSRLVQFHFTKDLETLKSLCRIMDNGFAGCVHFSYKASCEIRVLMLLYSSEKKIFIGLIPHDQGNFVNGIRRVIANQQQVLQRNLEQEQQQRGMGG
modifications: full-length
4. longCTD + Dox + IFNG: 2
3. + Dox longCTD: 2
SUM of PSMS: 4

B7: Q8NC51 (protein, UniProt Q8NC51 1-408, looked up)
chain: MPGHLQEGFGCVVTNRFDQLFDDESDPFEVLKAAENKKKEAGGGGVGGPGAKSAAQAAAQTNSNAAGKQLRKESQKDRKNPLPPSVGVVDKKEETQPPVALKKEGIRRVGRRPDQQLQGEGKIIDRRPERRPPRERRFEKPLEEKGEGGEFSVDRPIIDRPIRGRGGLGRGRGGRGRGMGRGDGFDSRGKREFDRHSGSDRSSFSHYSGLKHEDKRGGSGSHNWGTVKDELTESPKYIQKQISYNYSDLDQSNVTEETPEGEEHHPVADTENKENEVEEVKEEGPKEMTLDEWKAIQNKDRAKVEFNIRKPNEGADGQWKKGFVLHKSKSEEAHAEDSVMDHHFRKPANDITSQLEINFGDLGRPGRGGRGGRGGRGRGGRPNRGSRTDKSSASAPDVDDPEAFPALA
modifications: full-length
4. longCTD + Dox + IFNG: 1
3. + Dox longCTD: 2
3. + IFNg + Dox longCTD: 3
SUM of PSMS: 6

B8: Q15233 (protein, UniProt Q15233 1-471, looked up)
chain: MQSNKTFNLEKQNHTPRKHHQHHHQQQHHQQQQQQPPPPPIPANGQQASSQNEGLTIDLKNFRKPGEKTFTQRSRLFVGNLPPDITEEEMRKLFEKYGKAGEVFIHKDKGFGFIRLETRTLAEIAKVELDNMPLRGKQLRVRFACHSASLTVRNLPQYVSNELLEEAFSVFGQVERAVVIVDDRGRPSGKGIVEFSGKPAARKALDRCSEGSFLLTTFPRPVTVEPMDQLDDEEGLPEKLVIKNQQFHKEREQPPRFAQPGSFEYEYAMRWKALIEMEKQQQDQVDRNIKEAREKLEMEMEAARHEHQVMLMRQDLMRRQEELRRMEELHNQEVQKRKQLELRQEEERRRREEEMRRQQEEMMRRQQEGFKGTFPDAREQEIRMGQMAMGGAMGINNRGAMPPAPVPAGTPAPPGPATMMPDGTLGLTPPTTERFGQAATMEGIGAIGGTPPAFNRAAPGAEFAPNKRRRY
modifications: full-length
3. + Dox longCTD: 1
3. + IFNg + Dox longCTD: 8
SUM of PSMS: 10

B9: Q9UN86 (protein, UniProt Q9UN86 1-482, looked up)
chain: MVMEKPSPLLVGREFVRQYYTLLNKAPEYLHRFYGRNSSYVHGGVDASGKPQEAVYGQNDIHHKVLSLNFSECHTKIRHVDAHATLSDGVVVQVMGLLSNSGQPERKFMQTFVLAPEGSVPNKFYVHNDMFRYEDEVFGDSEPELDEESEDEVEEEQEERQPSPEPVQENANSGYYEAHPVTNGIEEPLEESSHEPEPEPESETKTEELKPQVEEKNLEELEEKSTTPPPAEPVSLPQEPPKAFSWASVTSKNLPPSGTVSSSGIPPHVKAPVSQPRVEAKPEVQSQPPRVREQRPRERPGFPPRGPRPGRGDMEQNDSDNRRIIRYPDSHQLFVGNLPHDIDENELKEFFMSFGNVVELRINTKGVGGKLPNFGFVVFDDSEPVQRILIAKPIMFRGEVRLNVEEKKTRAARERETRGGGDDRRDIRRNDRGPGGPRGIVGGGMMRDRDGRGPPPRGGMAQKLGSGRGTGQMEGRFTGQRR
modifications: full-length
4. longCTD + Dox + IFNG: 1
3. + Dox longCTD: 1
3. + IFNg + Dox longCTD: 3
SUM of PSMS: 6

B10: P26196 (protein, UniProt P26196 1-483, looked up)
chain: MSTARTENPVIMGLSSQNGQLRGPVKPTGGPGGGGTQTQQQMNQLKNTNTINNGTQQQAQSMTTTIKPGDDWKKTLKLPPKDLRIKTSDVTSTKGNEFEDYCLKRELLMGIFEMGWEKPSPIQEESIPIALSGRDILARAKNGTGKSGAYLIPLLERLDLKKDNIQAMVIVPTRELALQVSQICIQVSKHMGGAKVMATTGGTNLRDDIMRLDDTVHVVIATPGRILDLIKKGVAKVDHVQMIVLDEADKLLSQDFVQIMEDIILTLPKNRQILLYSATFPLSVQKFMNSHLQKPYEINLMEELTLKGVTQYYAYVTERQKVHCLNTLFSRLQINQSIIFCNSSQRVELLAKKISQLGYSCFYIHAKMRQEHRNRVFHDFRNGLCRNLVCTDLFTRGIDIQAVNVVINFDFPKLAETYLHRIGRSGRFGHLGLAINLITYDDRFNLKSIEEQLGTEIKPIPSNIDKSLYVAEYHSEPVEDEKP
modifications: full-length
4. longCTD + Dox + IFNG: 1
3. + Dox longCTD: 2
3. + IFNg + Dox longCTD: 3
SUM of PSMS: 6
